Source: publication doi:10.1101/2022.03.10.483824

Target: Full length native cardiac myosin II from rabbit heart ventricle (rabbit) (UniProt P04461)
Assay: optical trapping

Q: With “Biotinylated actin filament (chicken G actin polymerised with biotinylated G actin) (from UniProt P68139 1-377) (natural protein)” as the substance, how does the maximum AM detachment rate (kcat, at saturating ATP) read?
A: 88.2 s⁻¹
